The Kd is the equilibrium constant for the complex coming apart. High values mean a looser complex, low ones a tighter complex. As usually defined, the koff is the rate constant with which the complex falls apart. For orientation: kon means the rate constant with which the complex forms. Lower therefore signals slow association. For orientation: stoichiometry N means the number of molecules, sites or subunits per partner or assembly.

Experimental findings from PMC4737123 are described below.

Test [1] concerns the target purified human IgM (non‐specific IgM) (human). Put plainly: SPR; Biacore 2000; IgM (750 RU) immobilised on a CM4 chip by amine coupling; FV6 or FV2 flowed over (1.125-18 nM); HEPES buffer (0.01 M HEPES, 0.15 M NaCl, 3 mM EDTA, 0.005% P20) pH 7.4, 20°C; global 1:1 interaction model. A general note: In SPR one partner is held on a chip, and binding of the other changes the refractive index at the surface.

Test [2] has the same target. The experiment in a line: AUC; sedimentation velocity, 40 000 r.p.m., 20°C, PBS; FV6 alone, IgM alone, and IgM (0.2 μM) with FV6 at molar ratios 1:1, 1:2 and 1:3; continuous size distribution (SEDFIT).

With “recombinant full‐length IT4VAR04 (a VAR2CSA‐type PfEMP1; FV2) (natural protein)”, in test [1], the Kd worked out at 0.3 nM, the koff amounted to 0.00051 s⁻¹ and the kon was 1.8e+06 M⁻¹ s⁻¹.
Take “recombinant full‐length HB3VAR06 (FV6), entire ectodomain of the PfEMP1 protein HB3VAR06 (domain or fragment)”: the stoichiometry N in test [2] was 2 FV6 per IgM. In test [1], the Kd amounted to 0.1 nM, the koff is 0.0003 s⁻¹ and the association rate constant (kon) came to 2.3e+06 M⁻¹ s⁻¹.
